Molecular target: Aip5C-L (997–1234) (S. cerevisiae, UniProt P43597 997-1233)
Experiment: fluorescence polarisation

Sequence of Aip5C-L (997–1234) (P43597 997-1233): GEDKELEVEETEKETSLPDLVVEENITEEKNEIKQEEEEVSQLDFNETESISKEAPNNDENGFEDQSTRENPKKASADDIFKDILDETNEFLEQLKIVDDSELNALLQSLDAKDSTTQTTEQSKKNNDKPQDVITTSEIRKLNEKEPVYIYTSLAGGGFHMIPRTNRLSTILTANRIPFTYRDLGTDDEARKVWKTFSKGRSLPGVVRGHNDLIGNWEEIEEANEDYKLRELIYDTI

Kd: 85 nM
B1: Bud6 (1–145)-kCk-Alexa488 (domain or fragment, S. cerevisiae, UniProt P41697 1-145, looked up)
chain: MKMAVDDPTYGTPKIKRTASSSSSIETTVTKLLMSTKHLLQVLTQWSKGTTSGRLVSDAYVQLGNDFKVVSKFFMHAKVDMSDVGDVPMALRRVLEVTLREPPSDETLNKHLPKIREIIVTLLDKLKVKQAILKNMQQEHRISVK
modifications: Alexa488 maleimide on the single cysteine of the C-terminal KCK sequence

Source: PMC12916166 (The Journal of cell biology, 2025)
